In patent US20140199325A1:

Target: fibronectin (FN)
Experiment: solid phase ELISA, HEK293T/17 lysate on FN-coated wells, detected with Cub7402, normalised for expression

Chain of fibronectin (FN) (P02751 32-2477): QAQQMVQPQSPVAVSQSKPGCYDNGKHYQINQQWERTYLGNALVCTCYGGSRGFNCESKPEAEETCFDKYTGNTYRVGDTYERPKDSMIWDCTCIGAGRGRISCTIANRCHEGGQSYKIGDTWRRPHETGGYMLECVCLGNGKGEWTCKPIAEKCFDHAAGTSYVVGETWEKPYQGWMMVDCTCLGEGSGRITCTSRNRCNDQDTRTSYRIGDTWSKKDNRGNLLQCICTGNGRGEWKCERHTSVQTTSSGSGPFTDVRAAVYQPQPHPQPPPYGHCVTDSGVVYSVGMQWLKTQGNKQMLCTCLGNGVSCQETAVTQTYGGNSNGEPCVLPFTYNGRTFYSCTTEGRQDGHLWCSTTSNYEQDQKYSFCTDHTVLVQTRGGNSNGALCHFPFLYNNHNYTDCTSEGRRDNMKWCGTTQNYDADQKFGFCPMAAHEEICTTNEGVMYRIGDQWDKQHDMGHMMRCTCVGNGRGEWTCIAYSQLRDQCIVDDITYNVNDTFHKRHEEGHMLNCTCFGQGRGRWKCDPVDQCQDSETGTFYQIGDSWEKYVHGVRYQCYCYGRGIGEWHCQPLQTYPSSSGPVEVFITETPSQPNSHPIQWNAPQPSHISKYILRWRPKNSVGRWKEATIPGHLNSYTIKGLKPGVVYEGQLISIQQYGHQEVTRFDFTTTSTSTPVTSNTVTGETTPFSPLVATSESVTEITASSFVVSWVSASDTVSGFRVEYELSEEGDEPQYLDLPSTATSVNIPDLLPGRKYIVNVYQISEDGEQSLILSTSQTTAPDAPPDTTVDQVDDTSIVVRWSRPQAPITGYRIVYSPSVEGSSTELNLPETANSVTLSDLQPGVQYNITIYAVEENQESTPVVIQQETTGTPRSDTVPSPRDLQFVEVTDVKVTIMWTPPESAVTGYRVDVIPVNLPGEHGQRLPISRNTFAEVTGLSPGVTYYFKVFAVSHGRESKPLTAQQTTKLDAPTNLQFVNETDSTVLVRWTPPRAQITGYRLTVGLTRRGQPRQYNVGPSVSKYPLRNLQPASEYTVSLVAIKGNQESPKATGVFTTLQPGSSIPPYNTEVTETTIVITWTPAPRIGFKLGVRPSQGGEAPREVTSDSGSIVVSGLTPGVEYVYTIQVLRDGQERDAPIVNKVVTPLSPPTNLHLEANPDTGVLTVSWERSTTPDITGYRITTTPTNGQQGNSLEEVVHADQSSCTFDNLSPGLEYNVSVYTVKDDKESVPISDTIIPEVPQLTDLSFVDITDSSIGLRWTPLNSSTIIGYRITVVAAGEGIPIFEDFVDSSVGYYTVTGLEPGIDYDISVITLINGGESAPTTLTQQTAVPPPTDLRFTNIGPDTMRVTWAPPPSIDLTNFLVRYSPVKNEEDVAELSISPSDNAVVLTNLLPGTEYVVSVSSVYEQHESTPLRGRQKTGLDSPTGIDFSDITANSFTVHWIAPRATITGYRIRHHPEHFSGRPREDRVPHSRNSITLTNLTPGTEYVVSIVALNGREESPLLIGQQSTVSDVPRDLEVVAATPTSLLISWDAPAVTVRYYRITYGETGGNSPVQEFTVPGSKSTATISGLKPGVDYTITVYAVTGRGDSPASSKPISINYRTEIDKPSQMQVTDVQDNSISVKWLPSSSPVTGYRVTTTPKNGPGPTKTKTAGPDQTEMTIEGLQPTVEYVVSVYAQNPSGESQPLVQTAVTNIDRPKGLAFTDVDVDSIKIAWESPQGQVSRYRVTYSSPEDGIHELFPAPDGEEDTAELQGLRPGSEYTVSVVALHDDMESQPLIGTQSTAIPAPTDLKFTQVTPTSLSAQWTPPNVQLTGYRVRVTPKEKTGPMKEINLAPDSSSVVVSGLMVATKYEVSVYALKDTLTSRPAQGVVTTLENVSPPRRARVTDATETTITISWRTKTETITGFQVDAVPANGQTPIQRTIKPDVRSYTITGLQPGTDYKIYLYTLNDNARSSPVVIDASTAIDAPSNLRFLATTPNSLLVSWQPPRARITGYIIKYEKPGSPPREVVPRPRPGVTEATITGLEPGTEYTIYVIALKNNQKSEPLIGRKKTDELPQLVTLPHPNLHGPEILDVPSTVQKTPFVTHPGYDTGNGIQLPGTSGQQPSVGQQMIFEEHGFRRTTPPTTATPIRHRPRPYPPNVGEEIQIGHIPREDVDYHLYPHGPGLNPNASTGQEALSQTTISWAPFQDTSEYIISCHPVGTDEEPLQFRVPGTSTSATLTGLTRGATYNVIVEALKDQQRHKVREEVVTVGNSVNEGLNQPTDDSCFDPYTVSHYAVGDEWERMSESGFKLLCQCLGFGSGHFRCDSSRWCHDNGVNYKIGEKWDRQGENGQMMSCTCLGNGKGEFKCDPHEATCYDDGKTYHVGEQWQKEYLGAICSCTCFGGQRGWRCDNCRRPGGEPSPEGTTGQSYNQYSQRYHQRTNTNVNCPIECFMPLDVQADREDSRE

Row | Substance | binding compared to wild type TG2 [%] | binding capacity of the wild type [%]
1 | TG2 FN binding site mutant (D94A, D97A) (from UniProt P21980 2-687) (enzyme) | 50 | 
2 | N-terminal deletion product of TG2 (Δ1-15) (from UniProt P21980 16-687) (enzyme) |  | 40
